± gives the uncertainty stated by the source.
B1: Chromodomain-helicase-DNA-binding protein 4, residues 365 to 417; numbered along this chain, Q14839 (parent)
chain: YETDHQDYCEVCQQGGEIILCDTCPRAYHMVCLDPDMEKAPEGKWSCPHCEKE

Variants of: B1
Assay: abundance fitness (aPCA) (normalised: wild type 0, dead -1); higher = more abundant; growth selection in yeast, the domain comes from the species named
Settings: Homo sapiens

| Variant | abundance fitness |
| --- | --- |
| I18H | -0.408 ± 0.3 |
| I18S | -0.081 ± 0.1 |
| I18W | -0.218 ± 0.1 |
| I18V | -0.161 ± 0.1 |
| I18D | -0.058 ± 0.14 |
| I18K | -0.305 ± 0.18 |
| I18G | -0.042 ± 0.087 |
| I18P | -0.369 ± 0.14 |
| I18R | -0.06 ± 0.086 |
| I18M | 0.022 ± 0.11 |
| I18T | 0.221 ± 0.15 |
| I18E | 0.046 ± 0.15 |
| I18Y | -0.231 ± 0.17 |
| I18C | -0.216 ± 0.12 |
| I18Q | -0.14 ± 0.14 |
| I18F | 0.158 ± 0.16 |
| I18A | -0.123 ± 0.12 |
| E17N | 0.115 ± 0.13 |
| E17S | -0.033 ± 0.09 |
| E17H | -0.11 ± 0.16 |
| E17M | -0.149 ± 0.15 |
| E17V | -0.076 ± 0.11 |
| E17C | -0.308 ± 0.14 |
| E17F | -0.222 ± 0.11 |

| Variant | abundance fitness |
| --- | --- |
| E17T | -0.033 ± 0.11 |
| E17G | -0.171 ± 0.1 |
| E17K | -0.153 ± 0.15 |
| E17A | -0.149 ± 0.12 |
| E17R | -0.115 ± 0.086 |
| E17Y | -0.055 ± 0.13 |
| E17D | -0.109 ± 0.12 |
| E17I | -0.199 ± 0.14 |
| E17L | -0.322 ± 0.085 |
| E17Q | -0.135 ± 0.17 |
| E17W | -0.412 ± 0.12 |
| Y28W | 0.086 ± 0.12 |
| Y28V | -0.05 ± 0.096 |
| Y28L | -0.073 ± 0.098 |
| Y28F | 0.012 ± 0.16 |
| Y28D | -0.526 ± 0.19 |
| Y28R | -0.254 ± 0.094 |
| Y28E | -0.649 ± 0.12 |
| Y28N | -0.403 ± 0.18 |
| Y28C | -0.582 ± 0.16 |
| Y28S | -0.271 ± 0.098 |
| Y28K | -0.267 ± 0.16 |
| Y28I | -0.295 ± 0.14 |
| Y28H | 0.023 ± 0.22 |

| Variant | abundance fitness |
| --- | --- |
| Y28P | -0.704 ± 0.14 |
| Y28T | -0.284 ± 0.14 |
| Y28Q | -0.395 ± 0.14 |
| Y28M | 0.048 ± 0.12 |
| G16F | -0.469 ± 0.26 |
| G16Q | 0.036 ± 0.14 |
| G16I | -0.08 ± 0.22 |
| G16L | -0.016 ± 0.1 |
| G16M | -0.095 ± 0.16 |
| G16C | -0.32 ± 0.2 |
| G16T | 0.242 ± 0.12 |
| G16R | 0.009 ± 0.082 |
| G16D | 0.29 ± 0.17 |
| G16E | 0.12 ± 0.12 |
| G16V | -0.341 ± 0.1 |
| G16H | -0.12 ± 0.2 |
| G16N | 0.144 ± 0.22 |
| G16P | -0.347 ± 0.12 |
| G16Y | -0.262 ± 0.32 |
| G16S | 0.069 ± 0.098 |
| G16A | -0.114 ± 0.1 |
| G16K | 0.026 ± 0.16 |
| I19P | -0.849 ± 0.19 |
| I19W | -0.199 ± 0.11 |

| Variant | abundance fitness |
| --- | --- |
| I19A | 0.085 ± 0.097 |
| I19Q | -0.124 ± 0.18 |
| I19M | 0.277 ± 0.17 |
| I19F | -0.404 ± 0.3 |
| I19E | -0.07 ± 0.13 |
| I19Y | -0.629 ± 0.41 |
| I19C | -0.25 ± 0.19 |
| I19T | -0.101 ± 0.12 |
| I19N | -0.097 ± 0.22 |
| I19L | -0.145 ± 0.11 |
| I19S | -0.143 ± 0.13 |
| I19R | 0.022 ± 0.094 |
| I19D | -0.154 ± 0.15 |
| I19G | -0.137 ± 0.079 |
| I19K | 0.127 ± 0.14 |
| R26F | -0.288 ± 0.14 |
| R26I | -0.014 ± 0.15 |
| R26L | -0.231 ± 0.1 |
| R26M | 0.183 ± 0.14 |
| R26A | -0.137 ± 0.11 |
| R26W | -0.791 ± 0.15 |
| R26H | -0.273 ± 0.23 |
| R26C | -0.462 ± 0.16 |
| R26T | -0.191 ± 0.12 |

| Variant | abundance fitness |
| --- | --- |
| R26G | -0.112 ± 0.094 |
| R26S | -0.134 ± 0.11 |
| R26E | -0.356 ± 0.17 |
| R26Y | -0.413 ± 0.21 |
| R26P | -0.348 ± 0.17 |
| R26K | -0.065 ± 0.17 |
| R26D | -0.249 ± 0.17 |
| R26V | -0.226 ± 0.1 |
| M30T | 0.077 ± 0.16 |
| M30G | -0.126 ± 0.086 |
| M30V | -0.137 ± 0.099 |
| M30H | -0.433 ± 0.2 |
| M30A | -0.064 ± 0.1 |
| M30R | -0.266 ± 0.099 |
| M30D | -0.272 ± 0.12 |
| M30W | -0.119 ± 0.12 |
| M30E | 0.075 ± 0.12 |
| M30L | -0.149 ± 0.075 |
| M30K | 0.115 ± 0.18 |
| M30Q | -0.287 ± 0.17 |
| M30F | -0.19 ± 0.14 |
| M30S | -0.228 ± 0.1 |
| M30I | -0.02 ± 0.19 |
| H29I | -1.17 ± 0.24 |

| Variant | abundance fitness |
| --- | --- |
| H29E | -0.951 ± 0.15 |
| H29C | 0.028 ± 0.16 |
| H29M | -0.686 ± 0.16 |
| H29A | -0.967 ± 0.13 |
| H29K | -0.943 ± 0.19 |
| H29D | -0.306 ± 0.19 |
| H29W | -0.999 ± 0.12 |
| H29L | -1.04 ± 0.14 |
| H29S | -0.477 ± 0.11 |
| H29T | -0.79 ± 0.15 |
| H29N | -0.491 ± 0.26 |
| H29G | -0.698 ± 0.093 |
| H29P | -1.1 ± 0.21 |
| H29F | -1.05 ± 0.29 |
| H29Y | -0.841 ± 0.16 |
| H29V | -1.15 ± 0.11 |
| H29Q | -0.746 ± 0.14 |
| V31D | -0.005 ± 0.14 |
| V31A | 0.121 ± 0.11 |
| V31E | -0.089 ± 0.13 |
| V31C | 0.138 ± 0.18 |
| P25W | -0.27 ± 0.13 |
| P25G | -0.044 ± 0.096 |
| P25V | -0.241 ± 0.11 |

| Variant | abundance fitness |
| --- | --- |
| P25Y | -0.135 ± 0.25 |
| P25E | 0.198 ± 0.12 |
| P25H | -0.485 ± 0.46 |
| P25K | -0.274 ± 0.22 |
| P25S | 0.068 ± 0.11 |
| P25A | -0.243 ± 0.11 |
| P25R | -0.054 ± 0.094 |
| P25T | -0.192 ± 0.22 |
| P25M | -0.194 ± 0.15 |
| P25D | -0.276 ± 0.18 |
| P25N | 0.185 ± 0.19 |
| P25L | -0.044 ± 0.12 |
| P25Q | -0.058 ± 0.15 |
| P25I | -0.057 ± 0.27 |
| P25F | 0.079 ± 0.14 |
| P25C | 0.034 ± 0.15 |
| G15M | -0.028 ± 0.18 |
| G15L | -0.052 ± 0.12 |
| G15I | -0.664 ± 0.33 |
| G15P | -0.136 ± 0.23 |
| G15C | -0.524 ± 0.17 |
| G15K | -0.033 ± 0.25 |
| G15S | -0.013 ± 0.11 |

Reference: the Human Domainome abundance scans (Beltran et al. 2025)
